Biological target: CD38 FC融合标签蛋白 (CD38 Fc fusion tag protein, expressed in 293F cells) (UniProt P28907)
Assay: indirect ELISA, CD38 protein coated at 1 μg/ml, B cell culture supernatant, goat anti-rabbit IgG-HRP

OD450	Binder
1.78 OD450	命名为8H7的兔重组单克隆抗体 (anti-CD38 rabbit recombinant monoclonal antibody 8H7) (antibody, V domains shown) VH: QSVKESEGGLFKPTDTLTLTCTVSGFSLSSYGVIWVRQAPGKGLEYIGFVAVGGTTYYANWAKSRSTITRNTNENTVTLKMTSLTAADTATYFCVRNGVSGSSDIWGPGTLVTVSS VL: AYDMTQTPASVSEPVGGTVTIKCQASQSIYSYLSWYQQKLGQPPKLLIYSASTLASGVSSRFKGSGSGTEYTLTISGVECADAATYYCQQDYSGSNVDNTFGGGTEVVVK
2.23 OD450	命名为8A1的兔重组单克隆抗体 (anti-CD38 rabbit recombinant monoclonal antibody 8A1) (antibody, V domains shown) VH: QSLEESGGDLVKPAGSLTLTCTASGFSFSTSYWICWVRQAPGKGLEWIACIYTGSGSTPYASWAKGRFTISKTSSTTVTLQVTSLTAADTATYFCARDPGVHSGTNLWGQGTLVSVSS VL: DVVMTQTPASVSAAVGGTVTIKCQASEDINTLLAWYQQKPGQPPKLLIYLASNLASGVSSRFKGSRSGTEFTLTISDLECADAATYYCQCTYYGSTYGGTFGGGTEVVVK

Reference: patent CN115433277A
